Laboratory results from the supplement of paper PMC10126150.
± gives the standard deviation of the averaged measurements.

Each sequence was assayed on ATP (assay: switch fluorescence ratio, 500 uM ATP over buffer (Cy3 cluster intensity, sum of 5 cycles each) (fold (ratio)); higher = stronger signal-on switching upon ATP binding; sequences stand for … in TCGTCGGCAGCGTCAGATGTGTATAAGAGACAGTTTTTTTTTTTTTTTTTTTTTTTTT…TC). Conditions: aptamer strand: ATP DNA aptamer (quencher-CACCTGGGGGAGTATTGCGGAGGAAGG + anchor), 100 nM annealed; ATP concentration: 500 uM.
How it was run: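 The quencher-labelled ATP aptamer, at 100 nM, was annealed to Cy3-labelled switching-strand clusters on a modified Illumina MiSeq flow-cell. The clusters were imaged in selection buffer, then after 15 min with 500 uM ATP at 22 °C, and this buffer/ATP cycle ran five times with NaOH stripping and re-annealing between runs. Per-cluster fluorescence ratios, summed target-cycle over summed buffer-cycle Cy3 intensity, were averaged per switch-domain sequence. Clusters outside 100-1000 RFU were excluded.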
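Also: ATP exposure 15 min at 22 °C before imaging.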

Row | Sequence | switch fluorescence ratio
1 | TGATAGAGCC | 1.01 ± 0.023
2 | TGATAGGACA | 0.983 ± 0.023
3 | TGATAGGTGC | 1.19 ± 0.014
4 | TGATATAGTG | 1.002 ± 0.01
5 | TGATATATGG | 0.9872 ± 0.0081
6 | TGATATCACT | 0.996 ± 0.043
7 | TGATCACTAT | 1.007 ± 0.0076
8 | TGATCGCTGG | 1.02 ± 0.042
9 | TGATGAATTG | 1.04 ± 0.002
10 | TGATGAGGAA | 0.97725 ± 0.00082
11 | TGATGCAATT | 1.36 ± 0.24
12 | TGATGCATAT | 1.1411 ± 0.0011
13 | TGATGCTTTG | 0.998 ± 0.051
14 | TGATGGAAGG | 0.958 ± 0.06
15 | TGATGGAAGT | 0.986 ± 0.031
16 | TGATGGATTG | 0.99 ± 0.028
17 | TGATGGGATG | 1.01 ± 0.038
18 | TGATGGGCGC | 1.026 ± 0.0036
19 | TGATGGGGCA | 1.02 ± 0.021
20 | TGATGGTAGG | 0.981 ± 0.031
21 | TGATGGTTTA | 0.996 ± 0.03
22 | TGATGTAGCA | 0.979 ± 0.033
23 | TGATGTTACC | 1.06 ± 0.02
24 | TGATGTTAGT | 1.01 ± 0.024
25 | TGATGTTGAA | 0.99891 ± 0.00059

Row | Sequence | switch fluorescence ratio
26 | TGATTAAGCA | 0.999 ± 0.033
27 | TGATTAGCAA | 1.26 ± 0.3
28 | TGATTAGGGT | 1.05 ± 0.076
29 | TGATTATAGG | 0.992 ± 0.01
30 | TGATTCGTTC | 1.04 ± 0.033
31 | TGATTCTTTT | 0.974 ± 0.037
32 | TGATTGGTCA | 0.967 ± 0.012
33 | TGATTTAAGT | 0.992 ± 0.05
34 | TGATTTACAA | 1.05 ± 0.015
35 | TGATTTGGGA | 0.971 ± 0.015
36 | TGATTTGTAT | 0.968 ± 0.018
37 | TGATTTGTTT | 1 ± 0.04
38 | TGATTTTATT | 0.974 ± 0.011
39 | TGCAAATTCG | 0.999 ± 0.022
40 | TGCAAATTTT | 1 ± 0.036
41 | TGCAACGAGG | 0.998 ± 0.035
42 | TGCAACGTCG | 0.998 ± 0.019
43 | TGCAAGAGTT | 1.01 ± 0.014
44 | TGCACATGGG | 1.02 ± 0.015
45 | TGCACGTTTT | 1.09 ± 0.07
46 | TGCAGCTTGT | 1.0186 ± 0.00048
47 | TGCAGGCCAA | 1.08 ± 0.026
48 | TGCAGGGGGC | 1.02 ± 0.022
49 | TGCAGGGGTG | 1.06 ± 0.022
50 | TGCAGGGTGG | 1.05 ± 0.051

Row | Sequence | switch fluorescence ratio
51 | TGCATCGGGG | 0.983 ± 0.032
52 | TGCATCTGAG | 1 ± 0.021
53 | TGCATGTACC | 1.21 ± 0.051
54 | TGCATGTATT | 1.012 ± 0.0039
55 | TGCATGTGTC | 0.99 ± 0.035
56 | TGCATTACCC | 1.25 ± 0.41
57 | TGCATTCATT | 0.9937 ± 0.0093
58 | TGCATTTAGG | 1.02 ± 0.032
59 | TGCATTTGGG | 0.9893 ± 0.0031
60 | TGCCAACAGA | 1.25 ± 0.39
61 | TGCCAGGAGT | 1.05 ± 0.014
62 | TGCCAGTACG | 1.064 ± 0.0044
63 | TGCCAGTGCC | 1.04 ± 0.022
64 | TGCCATTGTT | 0.942 ± 0.01
65 | TGCCCCTGGC | 0.978 ± 0.042
66 | TGCCCGGGGA | 1 ± 0.037
67 | TGCCGAGATC | 1 ± 0.013
68 | TGCCGCAGGT | 1.01 ± 0.043
69 | TGCCGCCGGG | 1.03 ± 0.011
70 | TGCCGGGGCT | 0.967 ± 0.037
71 | TGCCGGGTGG | 1 ± 0.063
72 | TGCCGTTTTT | 1.02 ± 0.069
73 | TGCCTATGGG | 0.977 ± 0.029
74 | TGCCTGGGGA | 1.2 ± 0.25
75 | TGCCTGGTAT | 0.984 ± 0.019

Row | Sequence | switch fluorescence ratio
76 | TGCCTGTGCG | 1.04 ± 0.031
77 | TGCGAATAGG | 1.0088 ± 0.00022
78 | TGCGAATTAG | 0.998 ± 0.019
79 | TGCGACTCGG | 0.9988 ± 0.0056
80 | TGCGACTGGT | 0.942 ± 0.024
81 | TGCGACTTTG | 1.03 ± 0.018
82 | TGCGAGGGGG | 1.01 ± 0.033
83 | TGCGAGGGTT | 1.01 ± 0.093
84 | TGCGAGTATC | 1.02 ± 0.018
85 | TGCGATTGTT | 1.01 ± 0.056
86 | TGCGATTTTT | 1.01 ± 0.042
87 | TGCGCACGGG | 1.03 ± 0.019
88 | TGCGCCAGGG | 1.263 ± 0.0037
89 | TGCGCCATTT | 1.13 ± 0.26
90 | TGCGCTGTA | 1.02 ± 0.018
91 | TGCGCTTATA | 1.09 ± 0.015
92 | TGCGCTTGTG | 0.97 ± 0.025
93 | TGCGGAATAT | 1.14 ± 0.064
94 | TGCGGATATG | 0.982 ± 0.023
95 | TGCGGATGGT | 0.98 ± 0.016
96 | TGCGGGCGGC | 0.98 ± 0.024
97 | TGCGGGGAGA | 1.02 ± 0.024
98 | TGCGGGGCGG | 1.02 ± 0.034
99 | TGCGGGGGG | 0.9855 ± 0.0037
100 | TGCGGGGGGT | 1.025 ± 0.0086

Row | Sequence | switch fluorescence ratio
101 | TGCGGGGGTC | 1.04 ± 0.088
102 | TGCGGGTGAT | 0.9857 ± 0.004
103 | TGCGGGTTAA | 1.02 ± 0.024
104 | TGCGGGTTTC | 1.04 ± 0.017
105 | TGCGGTAAA | 1.09 ± 0.14
106 | TGCGGTATGT | 1.019 ± 0.0014
107 | TGCGGTGATG | 0.985 ± 0.016
108 | TGCGGTGTAG | 1.01 ± 0.011
109 | TGCGTAGAGG | 1.037 ± 0.006
110 | TGCGTATATT | 0.98 ± 0.017
111 | TGCGTCAACT | 1.01 ± 0.023
112 | TGCGTCAGCC | 1.04 ± 0.12
113 | TGCGTCTATT | 1.05 ± 0.078
114 | TGCGTTGCGG | 0.978 ± 0.029
115 | TGCTAAAGGG | 0.984 ± 0.036
116 | TGCTAAATTG | 1.015 ± 0.0015
117 | TGCTACAAGG | 1.03 ± 0.011
118 | TGCTAGCCGG | 1 ± 0.015
119 | TGCTAGCCTG | 0.9955 ± 0.004
120 | TGCTAGGCG | 1.02 ± 0.032
121 | TGCTAGTGGT | 1.01 ± 0.016
122 | TGCTATATGT | 0.993 ± 0.013
123 | TGCTATCATC | 0.989 ± 0.02
124 | TGCTCCTTGC | 1.08 ± 0.062
125 | TGCTCGGGGG | 1.15 ± 0.17

Row | Sequence | switch fluorescence ratio
126 | TGCTCTGCTA | 1.683 ± 0.0023
127 | TGCTCTTAGT | 1.04 ± 0.079
128 | TGCTGAAAAC | 0.974 ± 0.028
129 | TGCTGAAGGG | 1.04 ± 0.03
130 | TGCTGGATGG | 0.975 ± 0.032
131 | TGCTGGGGCT | 0.9847 ± 0.0033
132 | TGCTGTCGGC | 1.03 ± 0.029
133 | TGCTGTTTTT | 0.98095 ± 0.00061
134 | TGCTTAACAT | 1.01 ± 0.019
135 | TGCTTATCGC | 0.995 ± 0.024
136 | TGCTTCAGGG | 1.03 ± 0.014
137 | TGCTTCCCTC | 1.1 ± 0.018
138 | TGCTTCTAAT | 1.02 ± 0.021
139 | TGCTTGAGCA | 0.974 ± 0.019
140 | TGCTTGCCTT | 0.9886 ± 0.0096
141 | TGCTTGGAGG | 0.996 ± 0.014
142 | TGCTTGGGGA | 0.983 ± 0.082
143 | TGCTTGTGGG | 1.026 ± 0.0015
144 | TGCTTGTTTT | 0.9912 ± 0.0038
145 | TGCTTTATCT | 1.012 ± 0.0023
146 | TGCTTTCGTC | 0.945 ± 0.031
147 | TGCTTTGGTT | 1.01 ± 0.055
148 | TGCTTTTACG | 1.04 ± 0.064
149 | TGGAAAACCG | 1.08 ± 0.022
150 | TGGAAAAGGA | 0.9626 ± 0.0095

Row | Sequence | switch fluorescence ratio
151 | TGGAAAATTT | 1.01 ± 0.0059
152 | TGGAAAGGGA | 1.01 ± 0.044
153 | TGGAAATAGG | 0.981 ± 0.039
154 | TGGAAATCGC | 1 ± 0.04
155 | TGGAAATCGT | 1.07 ± 0.083
156 | TGGAACACCT | 1.13 ± 0.041
157 | TGGAACTATA | 1.02 ± 0.018
158 | TGGAAGGAGC | 1.07 ± 0.049
159 | TGGAAGGATT | 1.01 ± 0.015
160 | TGGAAGGGGG | 1.01 ± 0.051
161 | TGGAAGGGGT | 1.09 ± 0.14
162 | TGGAAGTGGG | 1.03 ± 0.042
163 | TGGAATAGGT | 0.999 ± 0.031
164 | TGGAATGCGG | 0.99792 ± 0.00061
165 | TGGAATGGGT | 0.987 ± 0.032
166 | TGGACCGGGC | 1 ± 0.025
167 | TGGACCTGAA | 1.1 ± 0.038
168 | TGGACGGCGC | 1.04 ± 0.016
169 | TGGACTCGGA | 1.03 ± 0.071
170 | TGGACTTGGG | 0.983 ± 0.023
171 | TGGAGAATTT | 1.02 ± 0.044
172 | TGGAGCCTGG | 0.984 ± 0.021
173 | TGGAGCGAGG | 1.02 ± 0.00015
174 | TGGAGGACTA | 1.14 ± 0.13
175 | TGGAGGAGGA | 0.982 ± 0.025

Row | Sequence | switch fluorescence ratio
176 | TGGAGGGCTA | 0.97 ± 0.032
177 | TGGAGGGTGG | 1.01 ± 0.019
178 | TGGAGGTGTG | 0.977 ± 0.01
179 | TGGAGTAGGA | 1.04 ± 0.051
180 | TGGAGTGTTC | 1.06 ± 0.011
181 | TGGAGTGTTT | 0.94 ± 0.021
182 | TGGATAGGGG | 1.03 ± 0.012
183 | TGGATATAGA | 1.01 ± 0.017
184 | TGGATCAGAG | 0.9984 ± 0.0013
185 | TGGATCATTT | 0.999 ± 0.022
186 | TGGATGACGC | 0.96 ± 0.12
187 | TGGATGACGG | 0.972 ± 0.13
188 | TGGATGGGGT | 0.973 ± 0.027
189 | TGGATGTTAT | 1.02 ± 0.092
190 | TGGATTATGA | 0.955 ± 0.011
191 | TGGATTCATG | 0.978 ± 0.06
192 | TGGATTCCTA | 1.002 ± 0.01
193 | TGGATTCTCT | 0.997 ± 0.017
194 | TGGATTGACT | 1.058 ± 0.0013
195 | TGGATTTAGA | 1.02 ± 0.017
196 | TGGATTTCGG | 1.016 ± 0.0065
197 | TGGATTTGCA | 1.03 ± 0.022
198 | TGGATTTGGG | 0.9969 ± 0.0066
199 | TGGATTTGTC | 0.99 ± 0.024
200 | TGGATTTTCA | 0.989 ± 0.03
